The results in this text go back to patent US10501734B2, “Compositions and methods of use thereof for making polypeptides with many instances of nonstandard amino acids” (Yale University, priority 2014, dated 2019).

A word on the Km: it is the concentration of substrate that gives half-maximal velocity.

Data set [1] in a line: ATP-PPi exchange assay (amino acid activation). Format: biochemical. Conditions: for Fold change: relative to progenitor pAcFRS. The protocol: A 25 μl ATP-PPi exchange reaction contained the following components: 100 mM HEPES-KOH (pH 7.5), 30 mM KCl, 10 mM MgCl2, 2 mM DTT, 2 mM KF, 2 mM NaPPi, 5 mM ATP, […], 2 μCi/μl of […] (PerkinElmer) and varied concentrations of amino acids (0.25, 0.5, 1.25, 2.5, 5, 10, and 20 mM, respectively). The reactions were incubated at 37° C. Time points were taken at 2 minutes, 5 minutes and 10 minutes by plotting 1 μl aliquots from the reaction immediately to the PEI-cellulose plates (Merck). For each reaction, 1 μl of blank reaction mixture containing no enzymes was set as background. The reaction mixtures were separated on the plates in 1 M urea and 1 M monopotassium phosphate. The plates were then scanned in a Molecular Dynamics Storm 860 phosphorimager (Amersham Biosciences). The ratio of ATP to PPi was determined to monitor reaction progress. The kinetic constants were derived from plotting initial velocity of a series of reactions that contained varied concentrations of amino acids. The data were analyzed by GraFit 5.0 (Erithacus Software).

For data set [2], the system named is tRNA. The data set can be described thus: Aminoacylation assay (tRNA charging). Format: biochemical. To be noted: for Fold change: relative to progenitor pAcFRS. The protocol:
Template plasmid containing tRNA gene was purified with the plasmid maxi kit (Qiagen), and 100 μg of plasmid was digested with BstNI (New England Biolabs). The BstNI digested template DNA was purified by phenol chloroform extraction, followed by ethanol precipitation and resolved in double distilled water. A His-tagged T7 RNA polymerase was purified over column of Ni-NTA resin according to manufacturer's instructions (Qiagen). The transcription reaction [40 mM Tris (pH 8); 4 mM each of UTP, CTP, GTP, and ATP at pH 7.0; 22 mM MgCl2; 2 mM spermidine; 10 mM DTT; 6 μg pyrophosphatase (Roche Applied Science); 60 μg/mL BstNI digested DNA template, approximately 0.2 mg/ml T7 RNA polymerase] was performed in 10 ml reaction volumes for overnight at 37° C. The tRNA was purified on 12% denaturing polyacrylamide gel containing 8 M urea and TBE buffer (90 mM Tris, 90 mM boric acid, 2 mM EDTA). UV shadowing illuminates the pure tRNA band, which is excised and extracted three times with 1M sodium acetate pH 5.3 at 4° C. The tRNA extractions were then ethanol precipitated, dissolved in RNase-free distilled water, pooled, and finally desalted using a Biospin 30 column (BioRad). The ratio of aminoacylated tRNA to total tRNA was determined to monitor reaction progress.
The tRNA was refolded by heating to 100° C. for 5 min and slow cooling to room temperature. At 65° C., MgC12, was added to a final concentration of 10 mM to aid folding. A His-tagged CCA adding enzyme was purified over column of Ni-NTA resin according to manufacturer's instructions (Qiagen). 16 μM folded tRNA in 50 mM Tris (pH 8.0), 20 mM MgCl2, 5 mM DTT and 50 μM NaPPi was incubated at room temperature for 1 hour with approximately 0.2 mg/ml CCA-adding enzyme and 1.6 μCi/μl of [α-32P]-labeled ATP (PerkinElmer). The sample was phenol/chloroform extracted and then passed over a Bio-spin 30 column (Bio-Rad) to remove excess ATP.
A 20 μl aminoacylation reaction contained the following components: 50 mM HEPES-KOH (pH 7.2), 25 mM KCl, 10 mM MgCl2, 5 mM DTT, 10 mM ATP, 25 μg/ml pyrophosphatase (Roche Applied Science), 2 mM amino acids. All plateau tRNA aminoacylation levels were determined at 37° C. according to the reactions conditions described above with 500 nM enzyme, 5 μM unlabeled tRNA plus 100 nM 32P-labeled tRNA. Time points were taken at 5 minutes, 20 minutes and 60 minutes by removing 2 μl aliquots from the reaction and immediately quenching the reaction into an ice-cold 3 μl quench solution [0.66 μg/μl nuclease P1 (Sigma) in 100 mM sodium citrate (pH 5.0)]. For each reaction, 2 μl of blank reaction mixture containing no enzymes was added to the quench solution as the start time point. The nuclease P1 mixture was then incubated at room temperature for 30 min and 1 μl aliquots were spotted on PEI-cellulose plates (Merck) and developed in running buffer containing 5% acetic acid and 100 mM ammonium acetate. Radioactive spots for AMP and AA-AMP (representing free tRNA and aminoacyl-tRNA, respectively) were separated and then visualized and quantified by phosphor imaging by a Molecular Dynamics Storm 860 phosphorimager (Amersham Biosciences). The ratio of aminoacylated tRNA to total tRNA was determined to monitor reaction progress.

For data set [3], the system named is GFP(3TAG). In kind it is cell-based, E. coli. Conditions: chromosomally integrated AARS; for higher GFP(3TAG) production compared with the progenitor enzyme: pAzF. The protocol:
(§1) Liquid cell cultures of strains harboring chromosomally integrated OTSs and GFP reporter plasmids were inoculated from frozen stocks and grown to confluence overnight. Cultures were then inoculated at 1:20 dilution in LBmin media supplemented with 30 μg/ml kanamycin. Strains were inoculated by addition of 1:20 confluent cell culture (grown overnight) and allowed to grow at 34° C. to an OD600 of 0.5-0.8 in a shaking plate incubator at 650 r.p.m (˜3 h). AARS expression was then induced by the addition of 0.2% arabinose, GFP expression was induced by the addition of 60 ng/ul anhydrotetracycline, and the appropriate nsAA was added to a concentration of 1 mM. Cells were incubated at 34° C. for an additional 16 h. Liquid cell cultures of strains harboring plasmid-based OTSs and GFP or ELP-GFP reporter plasmids were inoculated from frozen stocks and grown to confluence overnight. Cultures were then inoculated at 1:20 dilution in 2×YT media supplemented with 30 μg/ml kanamycin and 20 μg/ml chloramphenicol. […] Cells were allowed to grow at 34° C. to an OD600 of 0.5-0.8 in a shaking plate incubator at 650 r.p.m (˜3 h), reporter protein expression was then induced by the addition of 60 ng/ul anhydrotetracycline, and cells were incubated at 34° C. for an additional 16 h.
(§2) For 384 well plate-based assays, fluorescence and OD600 were directly measured following expression. For 96 well plate-based assays, cells were centrifuged at 4,000 g for 4 min. Supernatant medium was removed and cells were resuspended in PBS. This process was repeated twice with PBS. GFP fluorescence was measured on a Biotek spectrophotometric plate reader using excitation and emission wavelengths of 395 and 509 nm, respectively). Fluorescence signals were normalized by dividing the fluorescence counts by the OD600 reading. The nsAAs used in this study were purchased from Sigma-Aldrich (St. Louis, Mo.), Chemlmpex (Wood Dale, Ill.), and Bachem (Torrance, Calif.). Solutions of nsAAs (50 mM) were made in water or 50 mM NaOH; these stock solutions were diluted 50- or 100-fold (to 1 mM final concentration) into medium used for bacterial growth.

Data set [4] has as its system GFP(3TAG). The data set can be described thus: nsAA library screening, GFP(3TAG) fluorescence in 384 well plates. In kind it is cell-based, E. coli. To be noted: GFP(3TAG) production in the presence of pAcF, pAzF and 236 other nsAAs. The protocol: as §1
as §2, with “growth. […]” for “growth.”

“Also recorded” adds a separate entry of the source.

B1: pAcFRS.2: pAcFRS variant L65V, A167D, SEQ ID NO: 7 (protein)
chain: MDEFEMIKRNTSEIISEEELREVLKKDEKSALIGFEPSGKIHLGHYLQIKKMIDLQNAGFDIIIVLADLHAYLNQKGELDEIRKIGDYNKKVFEAMGLKAKYVYGSEFQLDKDYTLNVYRLALKTTLKRARRSMELIAREDENPKVAEVIYPIMQVNGCHYRGVDVDVGGMEQRKIHMLARELLPKKVVCIHNPVLTGLDGEGKMSSSKGNFIAVDDSPEEIRAKIKKAYCPAGVVEGNPIMEIAKYFLEYPLTIKRPEKFGGDLTVNSYEELESLFKNKELHPMRLKNAVAEELIKILEPIRKRL
For the molecule B1, the Km in data set [1] (nsAA pAcF) was determined as 3130 ± 1730 µM; in data set [1] (nsAA pAzF), 6400 ± 780 µM; in data set [2] (nsAA pAcF) it was 31 ± 7 µM; in data set [2] (nsAA pAzF) it was 33 ± 8 µM. Also, the kcat in data set [1] (nsAA pAcF) is reported as 5.28 ± 0.79 ×10^−2 s^−1; in data set [1] (nsAA pAzF) it was 4.08 ± 0.20 ×10^−2 s^−1; in data set [2] (nsAA pAcF) it was 0.58 ± 0.09 ×10^−3 s^−1; in data set [2] (nsAA pAzF), 0.18 ± 0.02 ×10^−3 s^−1. The Fold change in data set [1] (nsAA pAcF) amounted to 2.48; in data set [1] (nsAA pAzF) it was 0.44; in data set [2] (nsAA pAcF), 2.56; in data set [2] (nsAA pAzF) it was 0.88. Also, the “selectivity toward pAcF over pAzF” value in data set [3] (GFP(3TAG) expression) is listed as “increase in selectivity”. Also, the “nsAA specificity (polyspecificity)” value in data set [4] is on record as “polyspecifity for at least pAcF, pAzF, StyA, 4IF, 4BrF, 4ClF, 4MeF, 4Cf3F, MeY, 4NO2F, 4BuF, BuY, 2NaA, PheF”.

B2: pAzFRS.1: pAcFRS variant D158V, I159M, L162D, A167Y, SEQ ID NO: 10 (protein)
chain: MDEFEMIKRNTSEIISEEELREVLKKDEKSALIGFEPSGKIHLGHYLQIKKMIDLQNAGFDIIILLADLHAYLNQKGELDEIRKIGDYNKKVFEAMGLKAKYVYGSEFQLDKDYTLNVYRLALKTTLKRARRSMELIAREDENPKVAEVIYPIMQVNVMHYDGVDVYVGGMEQRKIHMLARELLPKKVVCIHNPVLTGLDGEGKMSSSKGNFIAVDDSPEEIRAKIKKAYCPAGVVEGNPIMEIAKYFLEYPLTIKRPEKFGGDLTVNSYEELESLFKNKELHPMRLKNAVAEELIKILEPIRKRL
In the case of B2, in data set [1] (nsAA pAzF), the Michaelis constant (Km) came out at 1180 ± 210 µM, the kcat is on record as 4.61 ± 0.18 ×10^−2 s^−1 and the Fold change is recorded as 2.68. In data set [2] (nsAA pAzF), the Km was 38 ± 5 µM, the kcat was 0.46 ± 0.18 ×10^−3 s^−1 and the Fold change is reported as 1.48. The “higher GFP(3TAG) production compared with the progenitor enzyme” value in data set [3] was ~3.5 fold. In data set [4], the “nsAA specificity (polyspecificity)” value is “specific for pAzF; also recorded: exceptional specificity toward pAzF with almost complete exclusion of any other nsAA; also recorded: both more efficient and more specific for pAzF than previously reported pAzFRSs”.

B3: pAzFRS.2: pAcFRS variant E107T, F108Y, Q109M, SEQ ID NO: 13 (protein)
chain: MDEFEMIKRNTSEIISEEELREVLKKDEKSALIGFEPSGKIHLGHYLQIKKMIDLQNAGFDIIILLADLHAYLNQKGELDEIRKIGDYNKKVFEAMGLKAKYVYGSTYMLDKDYTLNVYRLALKTTLKRARRSMELIAREDENPKVAEVIYPIMQVNGCHYRGVDVAVGGMEQRKIHMLARELLPKKVVCIHNPVLTGLDGEGKMSSSKGNFIAVDDSPEEIRAKIKKAYCPAGVVEGNPIMEIAKYFLEYPLTIKRPEKFGGDLTVNSYEELESLFKNKELHPMRLKNAVAEELIKILEPIRKRL
For B3, in data set [1] (nsAA pAzF), the Michaelis constant (Km) is 1250 ± 110 µM, the kcat is 4.13 ± 0.86 ×10^−2 s^−1 and the Fold change amounted to 2.26. Besides, in data set [2] (nsAA pAzF), the Km was 32 ± 11 µM, the kcat is reported as 0.73 ± 0.06 ×10^−3 s^−1 and the Fold change came out at 3.67. Moreover, in data set [3], the “higher GFP(3TAG) production compared with the progenitor enzyme” value is reported as ~12 fold. Also, the “nsAA specificity (polyspecificity)” value in data set [4] was “polyspecific for at least pAcF, pAzF, StyA, 4IF, 4BrF, 4ClF, 4MeF, 4Cf3F, MeY, 4NO2F, 4BuF, BuY, 2NaA, PheF”.
